In patent publication US9631002B2, “Methods and compositions for producing active vitamin K-dependent proteins” (The University of North Carolina at Chapel Hill, priority 2010, dated 2017):

What was measured:
[1] = tested on: carboxylation of FIXgla-PC reporter protein in HEK293 cells (reduction of KO to vitamin K); assay: Cell-based VKOR activity assay: recombinant VKOR/VKORH expressed in FIXgla-PC/HEK293 cells with KO and warfarin, carboxylated reporter by ELISA; parameters: species or system human
[2] = tested on: carboxylation of FIXgla-PC reporter protein in AV12 cells (reduction of vitamin K to KH2); assay: Cell-based VKOR activity assay in FIXgla-PC/AV12 or FIXgla-PC/VKOR-Y139F/AV12 cells, carboxylated reporter by ELISA; parameters: species or system Syrian golden hamster

Row | Molecule | activity relative to human VKOR-Y139F ([1]; 5 μM KO, 4 μM warfarin, 48 h, luciferase-normalized (FIG. 15B)) [fold] | Relative activity: Human Y139F ([1]; VKOR of the organism compared to human Y139F VKOR, cell-based carboxylation) | activity relative to human VKOR (Y139F) ([1]; both human forms carry Y139F, 5 μM KO, 2 μM warfarin) [fold] | support of reporter protein carboxylation ([2]; transient expression in FIXgla-PC/AV12 not stably expressing VKOR-Y139F, KO and warfarin (FIG. 19B)) | activity in reducing vitamin K to KH2 to support carboxylation ([2]; transient expression in FIXgla-PC/VKOR-Y139F/AV12, KO and warfarin (FIG. 19A)) | ability of human VKOR with replaced residues 122-139 to use KO to carboxylate the reporter ([1]; 5 μM KO, 2 μM warfarin, 48 h, HEK293 (FIG. 11C)) | ability of human VKOR with replaced residues 122-139 to use vitamin K to carboxylate the reporter ([2]; 11 μM K, 2 μM warfarin, 48 h, FIXgla-PC AV-12 (FIG. 11B))
1 | MT-VKORH: Mycobacterium tuberculosis VKOR homologue, NP_217484, SEQ ID NO:18 (protein, listed as Mycobacterium tuberculosis) MVAARPAERSGDPAAVRVPVPSAWWVLIGGVIGLFASMTLTVEKVRILLDPIYVPSCNVNPIVSCGSVMTTPQASLLGFPNPLLGIAGFTVVVVTGVLAVAKVPLPRWYWIGLAVGILVGVAFVHWLIFQSLYRIGALCPYCMVVWAVIATLLVVVASIVFGPMRENRGSQERVGARLLYQWRWSLATLWFTTVFLLIMVRFWDYSTLI | 2.5 | Yes, greater | 2 | produced significant carboxylated reporter protein | significant activity | – | –
2 | hVKOR M. tuberculosis: human VKOR with residues 122-139 replaced by M. tuberculosis VKOR 129-146, SEQ ID NO:29 (protein, Human VKOR with amino acids 122-139 substituted with amino acids 129-146 of M. tuberculosis VKOR (RefSeq accession no. NP_217484)) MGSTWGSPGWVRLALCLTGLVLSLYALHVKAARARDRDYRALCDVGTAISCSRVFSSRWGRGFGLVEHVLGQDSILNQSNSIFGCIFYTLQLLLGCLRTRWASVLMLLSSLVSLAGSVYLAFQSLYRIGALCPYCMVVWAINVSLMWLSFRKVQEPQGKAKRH | – | – | – | – | – | functions as a VKOR | can utilize vitamin K to produce carboxylated reporter protein
